Data as given in the nanobody polyreactivity screen of Harvey et al. (2022).

Experiment: yeast display, Sf9 membrane polyspecificity reagent, FACS + sequencing; frameworks hold sequencing errors
Summary of the method: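 Nanobodies came from a synthetic yeast display library in Saccharomyces cerevisiae BJ5465, induced with galactose for 36–48 hours and stained for 1 hour at 4 °C with 10% biotinylated, detergent-solubilized Sf9 membrane reagent. Cells were enriched on streptavidin microbeads and then FACS-sorted, with low and high (top ~1%) gates set on anti-HA fluorescence for expression and streptavidin fluorescence for reagent binding. Each polyreactivity label reflects the gate a clone came from. Genes were amplified by colony PCR, sequenced by MiSeq 2 × 250 and filtered by CDR length.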

Row | Sequence | polyreactivity (PSR sort gate)
1 | QVQLQESGGGLAQAGGSLRLSCAASGNIFDADIMGWYRQAPGKERELVGSITDGGSTNYVDSVKGRFTISRDNAKNTVHLQMNSLKPEDTAVYYCAAIAYPDIPTYFDYDSDCFNWGHGTQVTVSS | high polyreactivity
2 | QVQLQESGGGLAQAGGSQRLSCAASGTIFAADSMGWYRQAPGKERELVAGITSGANTYYADSVKGRYTISHDNAKKTVYLQMDSLIPEAIAVYYCAAPGSTTYDLEYWGQGTQVTVSS | high polyreactivity
3 | QVQLQESGGGLEQAGGSLRLSCAASGYIFPTAIKGWYRQAPGKERKLVAAINPGSNTYYADSVKGRFTFSRDNANNSVYLQMNSLKPEDAAVYYCGVSIWLVGTLDYWGQGTQVTVSS | low polyreactivity
4 | QVQLQESGGGLEQAGGSLRLSCAASGYITDIGTMGWYRQAPGKEREFVATIVVGSTTNYADSVKGRFTISRDNAKNTVYLQPESGRYRGVLLRGWLLAVGNFTYWGQGTQETVSS | low polyreactivity
5 | QVQLQESGGGLEQAGGSLRMSCAANGNIFDADIVGRYRQAPGKKRELVASITDGGITNYADSVKGRFTISRDNAKYTVYLQMNSQNPEDTAVYYCAAIAYPDIPTYFDYDSDFFYWGQGTQVTVSS | high polyreactivity
6 | QVQLQESGGGLEQAGGSLRMSCAANGNIFDSDIVGRYRQAPGKKRELVASITDGGITNYADSVKGRFTISRDNAKYTVYLQMNSQNPVDTAVYYCAAIAYPDIPTYFDYDSDFFYWGQGTQVTVSS | high polyreactivity
7 | QVQLQESGGGLLQAGGSLRLSCAASGNFFDADIMGWYRQAPGKERELVASITDGGSTNYADRVKGRFTISRGNTKNTVYLLMNCLKPDDTSVYYCAAIAYPDIPTYFDYNSDYFYGGQGTQVTVSS | high polyreactivity
8 | QVQLQESGGGLLQAGGSLRLSCAASGNIFLSIFMGWYRQAPGKEREFVAGIGSGTNTNYADSVKGRFTISRDNAKNTVYLQMNSLKPEDTAGYYSAAGRFGLYYHGYWGLGTQVTVSS | high polyreactivity
9 | QVQLQESGGGLMQAGGSLRLSCTASGTISDVRVMGWYRQAPGRERELVATISYVTITYYADSVKGRFTISRDSEKHRVSADDEPETGRYRGVLLRYYWGLGTQVTVSS | low polyreactivity
10 | QVQLQESGGGLMQAGGSQRLSCAASGSISYYSDMCWYRQAPGKEREFVAGIGYGTTTNYADSVKGRFTTSRDNAKNTVYLQMISMKPEDTAVYYCAAYQGNGYEFYYWGQGTQVTVRS | low polyreactivity
11 | QVQLQESGGGLMQAGGSQRLSCAESGSISYYSDMGWYRQAPGKEREFVAGIGYGTTTNYADSVKGRFTTSRDNAKNTVYLQMISMKPEDTAVYSCAAYQGNGYEFYYWGQGTQVTVRS | low polyreactivity
12 | QVQLQESGGGLVEAGGTLRLSCAASGSYSADEDMGWYRQAQGKEREFVAGISVGGNTNYADSVKGRFTSSRENAKNSLFLQINSLKPEDTAVYYCAVLPDVYDALDYWAQGTQVTVSS | high polyreactivity
13 | QVQLQESGGGLVKAGGSLRLSCAASGNISNHNDMGWYRQAPGKEREFVAGITAGGITNYADSVKGRFTISRDNAKNTVYLLMKRLKPEDTAVYYCAAYPDYAKSYGFWGQGTQATVSS | low polyreactivity
14 | QVQLQESGGGLVKAGGSLRLSCAASGNISPRDAMGWYRQAPGEERDLVASNAYSAITYYADGVKGRYTISRDNAKNTVYLQMNSLKPEDTVVYYCAVYQFTYPVFPAYWGQGTQVTVSS | low polyreactivity
15 | QVQLQESGGGLVLAGGSLRLSCAASGSISAQAYMGWDRQAPGKEREHVAGINYGDNTNYADSVKGRFTISRDNEHSVSADEQPETGRYRGVLLRGFLELFYYYIYWGQGTQVTVSS | high polyreactivity
16 | QVQLQESGGGLVLAGGSLRLSCAESGYISWSFTMGWYRTAPGKERELVAGITYGGITYYADSVKGRFTISRDNAKNTVYLQMNSLKPEDTAVYYCNARKHGQGRNGYGSWGQGTQVTVSS | high polyreactivity
17 | QVQLQESGGGLVQACGSLRLSCAASGTITVLYKMGWFRQAPGKEREFVASINYGTSTYYADSVKGRFTVSRDSAKNTVYLQMNSLKPEDTAVYYCAAAYRWQDVYRYWGQGTQVTVSS | low polyreactivity
18 | QVQLQESGGGLVQAGASLRLSCAASGSIYDDTYMGSYRQAPGKERELVATIDSGSTTNYADSVKGRITISRDNEKNTVYLQMNSLKPEDSAVYYCAAADSHIDYFDYWGQGTQVTVSS | low polyreactivity
19 | QVQLQESGGGLVQAGASQRLSCAASGYIFYFQYMGWYRQAPGKEREFVAAISDGANTNYADSVKGRFTISRDNAKNTEYLQMNSLKPEDTAVYYCAVYADENYYYIYWGQGTQVTVSS | low polyreactivity
20 | QVQLQESGGGLVQAGDSLRLSCAASGTISGRDSMGWYRQAPGKEREFVASIDFGTNTYYADSVKGRFTISRDNAKNTVYLQMNRLTAVYYCAAPDSQYSYWGQGTQVTESS | high polyreactivity
21 | QVQLQESGGGLVQAGGDLRLSCAASGNIFRDYIMGWNRQAPGKEREFVAGIDRGANTNYADSVKGRFTISRDNAKNTVYLQMNSLKPEDTAVYYCAVHTDIVPDFIYWGQGTQVTVSS | low polyreactivity
22 | QVQLQESGGGLVQAGGDLRLSCAASGNIFRDYIMGWYREAPGKEREFVAGIDRGANPNYADSVKGRFTISRDNAKNTVYLQMNSLKPEDTAVYYCAVHTAIVADFIYWGQGTQVTVSS | low polyreactivity

Row | Sequence | polyreactivity (PSR sort gate)
23 | QVQLQESGGGLVQAGGILRLSCASCGNIIPSAVMVWYRQALGKEREFVATINSGSNTYYADSVKGRFTISRDNAKITVYQQMNILKLEDTAVYYCAAYFKLPAWHTYWGQGTQVTVSS | low polyreactivity
24 | QVQLQESGGGLVQAGGSLCLSCAASGTIFFDGDMGWYRQAPGKEREFVAAINPGGSAYYADSVKGRLPLAAITHTVYLQMNSLKPEDTAVYYCAAKLFDVYGYYYWGQGTHVTVSS | low polyreactivity
25 | QVQLQESGGGLVQAGGSLLLSCAASGTICDSGLMGWYRQAPGKERELVDVISSGGITNYADSVKGRYTISRDNAKNTVYMQMNSLKPEDTAVYWGQGPQVTVSS | low polyreactivity
26 | QVQLQESGGGLVQAGGSLRLGCAASGNISDAGYMGWYRQAPGKEREFVAAIAAGSNTNYADSVKGRFTISRDNAKNTVYLQMNSLKPEDTAVFYCAVASYARVQYQYWGQGTQVTVNS | low polyreactivity
27 | QVQLQESGGGLVQAGGSLRLGCAASGYISGFNEMGWYRQAPGKERELDAAITNGGISNYADSVKGRFTISRDNAKNTVYLQMNSLKPEDTAMYYCAAGDFDQSNHAYWGQDTQVTVSS | high polyreactivity
28 | QVQLQESGGGLVQAGGSLRLRCAASRNNSGSSDLGWYHQAPGKEREFVASITSGGTTYYADSVKGRFTISRDNAKNTVYLQMNSLKPEDTAVYYCAVGDPADAEFGYWGQGTQVTVSS | low polyreactivity
29 | QVQLQESGGGLVQAGGSLRLSCAARGNNSSYYRMGWYRQAPGQEREFVATIAVGGTTNYADSVKGRFTISRDNEKTTLYLQRNSLKPEDTAVCFCAANSTQYTWFDYWGQGTQVPVSS | low polyreactivity
30 | QVQLQESGGGLVQAGGSLRLSCAASGNIFLGGDKGWYRQAPGKEREFVAAISDGTSTNYADSVKGRFTISRDNAKNTVYLQMNSLKPEDTAVYYCAAQYRYQRYSYAMEYWGQGTQVTVSS | high polyreactivity
31 | QVQLQESGGGLVQAGGSLRLSCAASGNISSYYRMGWYRQAPGKEREFVATIAVGGTTNYADSVKGRFTISRDNAINTVFLQRNSLNTEDTAVCFCAANSTQYTWFDYWGQGTQVPVSS | low polyreactivity
32 | QVQLQESGGGLVQAGGSLRLSCAASGNIVDADIMGWYRQAPGKERELVASITDGGSTNYADSEKGRFTICRDNAKNTVYLQMNSVKPEDTAVYYCAAMAYPDIPTSFDYDSEYFYWGQGTQVKVSS | low polyreactivity
33 | QVQLQESGGGLVQAGGSLRLSCAASGPISRRSTMGWNRQAPGKERELVTAITRGTNTNYADSVKGRFTISRDNAKNTEYLQMNSLKPVDTAVYYCAAYGVLKPSRGDAVFHRYWGQGTQVTVSS | low polyreactivity
34 | QVQLQESGGGLVQAGGSLRLSCAASGPISRRSTMGWYRQAPGKERELVTAITRGTNTNYADSVKGRFTISRDNAKNTEYLQMNSLKPVDTAVYYCAAYGVLNPSRGDAVFHRYWGQGTQVSVSS | low polyreactivity
35 | QVQLQESGGGLVQAGGSLRLSCAASGSIFDGFNMGWNRQAPGKEREFVAAISYGASTYYADSVKGRFTVSRDNAKNCVYLQMNSLKPEDSAVYYCAVYDELYQVLVYWGRGTQVTVSS | low polyreactivity
36 | QVQLQESGGGLVQAGGSLRLSCAASGSIFDGFNMGWYRQAPGKEREFVAAISYGASTYYADSVKGRFTVSRDNAKNSVYLQMNSLKPEATAVYYCAVYDELYHVLVYWGRGTQVTVSS | low polyreactivity
37 | QVQLQESGGGLVQAGGSLRLSCAASGSIFDYVSMGWYRQAPGEERELVVTITLGSNTYYADSVKGRFTISSDIAKNTVYLQMNSLNPEDTAVYYCAASALWGYVYPYWGLGTQVTVSS | high polyreactivity
38 | QVQLQESGGGLVQAGGSLRLSCAASGSIFDYVSMGWYRQAPREERELVVTITLGSNTYYADSVKGRFTISSDIGKNTVYLQMNSLNPEDTAVYYCAASALWGYVYPYWGLGTQVTVSS | high polyreactivity
39 | QVQLQESGGGLVQAGGSLRLSCAASGSIFEELDMGWYRQAPGKEREFVAANGTGSTTYYADSVKGRFTISRDNAKNTVYLQMNSLKPEVTAVYYCAVTYSVYLPFRYWGQGTQVTVSS | high polyreactivity
40 | QVQLQESGGGLVQAGGSLRLSCAASGSIFKVVDMGLYRQAPGKEREFVATNGEGGNTYSADSVKGRFTISRDNAKNTVYRQMNSLKPEATAVYFYAVVLGTSYRYTYWGQGTQVTVSS | low polyreactivity
41 | QVQLQESGGGLVQAGGSLRLSCAASGSIFVSVTMGWYRQAPGKERELVASIGRGSTTNHADSVKGRFTISRDNAKNIVYLLMNSLKPEDTEVYYCAALESYGKYHGYWGQGTQVTVSS | low polyreactivity
42 | QVQLQESGGGLVQAGGSLRLSCAASGSISADGAMGWYRQAPGKEREFAASVNWGTNTNYADSVKGRFTISRDNAKNTLYLQMNRLKPEDTAVYYCAVLPDWETRHDYWGHGTQVTVSS | low polyreactivity
43 | QVQLQESGGGLVQAGGSLRLSCAASGSISRYYDMGLYRQAPGKEREFVAGISGGAITYYADSVKGRFTISRDNAKNTVYLQMNSLKPVDTAVYYCAADTGVYQYHSYWGQGTQVTVSS | low polyreactivity
44 | QVQLQESGGGLVQAGGSLRLSCAASGSISRYYDMGWYRQAPGKELEFVAGISGGAITYYADSVKGRFTISRDNAKNTVYLQMNSLKPEDTAVYYCAADTGVYQYHSYWGQGTQVTVSS | low polyreactivity
